Experiment [1] has as its target T1, Human IL-17A (human, UniProt Q16552 20-155, limits assumed).
T1 construct: Biotinylated in the ELISAs; purified recombinant protein in SPR; also called hIL17A; hIL-17
Briefly: SPR (Biacore T200), antibody captured by anti-human IgG Fc, antigen in solution. As to the method: The binding of antibodies to purified recombinant IL-17 proteins was determined by surface plasmon resonance-based measurements with a Biacore® T200 instrument (GE Healthcare) using running HBS-EP (10 mM HEPES [pH 7.4], 150 mM NaCl, 3 mM EDTA, and 0.005% surfactant P20) containing 0.1 mg/ml BSA at 25° C. All chemicals were obtained from Biacore® AB (GE Healthcare) or otherwise from a source as described in the text. Approximately 5000 RU of goat anti-human IgG (Fcg) fragment specific polyclonal antibody (Pierce Biotechnology Inc, Rockford, Ill.) diluted in 10 mM sodium acetate (pH 4.5) was directly immobilized across a CM5 research grade biosensor chip using a standard amine coupling kit according to manufacturer's instructions and procedures at 25 μg/ml. Unreacted moieties on the biosensor surface were blocked with ethanolamine. Modified carboxymethyl dextran surface in flowcell 2, 3 and 4 were used as a reaction surface. Modified carboxymethyl dextran with Goat IgG in flow cell 1 was used as the reference surface. For kinetic analysis, rate equations derived from the 1:1 Langmuir binding model were fitted simultaneously to association and dissociation phases of all six injections (using global fit analysis with local float for Rmax) with the use of Biacore T200 Evaluation software v.1.0. Purified antibodies were diluted in HEPES-buffered saline for capture across goat anti-human IgG specific reaction surfaces. Antibodies to be captured as ligand (1-5 μg/ml) were injected over reaction matrices at a flow rate of 50 μl/minute. Association phase was monitored for 5 minute, while dissociation phase was monitored for 10-60 min to accommodate for slower off-rates. The association and dissociation rate constants, ka (unit M-1 s-1) and kd (unit s-1) were determined under a continuous flow rate of 50 μl/minute. Rate constants were derived by making kinetic binding measurements at six different antigen concentrations ranging from 0.78 nM to 100 nM, depending on the species of IL-17 tested. The association ka, dissociation rate kd and equilibrium dissociation constant KD were calculated with the use of the same Biacore T200 Evaluation software v.1.0.

For experiment [2], the target named is T1, Human IL-17A. As to the kind of experiment: ELISA, captured antibody, biotin-human IL-17 titrated. As for the experimental part: (§1) The following protocol is used to characterize the binding of IL-17 antibodies to human IL-17 by enzyme-linked immunosorbent assay (ELISA). An ELISA plate was coated with 50 μl per well of goat anti mouse IgG-Fc at 2 μg/ml, overnight at 4° C. The plate was washed 3 times with PBS/Tween. 50 μl Mab diluted to 1 μg/ml in PBS/0.1% BSA was added to appropriate wells and incubated for 1 hour at room temperature (RT). The plate was washed 3 times with PBS/Tween. 50 μl of serial diluted biotin-human IL-17 was added to appropriate wells and incubated for 1 hour at RT. The plate was washed 3 times with PBS/Tween. 50 μl of streptavidin-HRP diluted 1:10,000 in PBS/0.1% BSA was added to appropriate wells and incubated for 1 hour at RT. The plate was washed 3 times with PBS/Tween. 50 μl of TMB was added to appropriate wells and the reaction allowed to proceed for 1 minute. The reaction was stopped with 50 μl/well 2N H₂SO₄ and the absorbance read at 450 nm.

In experiment [3] the target is T2, Cynomolgus monkey IL-17A (cynomolgus monkey, UniProt A0A2K5TTB0 24-155).
T2 construct: also called Cyno IL-17AA; Cyno IL17AA
T2 sequence (A0A2K5TTB0 entry or part of it): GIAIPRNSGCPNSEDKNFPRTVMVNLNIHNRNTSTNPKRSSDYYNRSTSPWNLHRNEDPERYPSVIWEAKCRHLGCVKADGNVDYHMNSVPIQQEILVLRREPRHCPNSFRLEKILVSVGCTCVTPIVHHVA
Briefly: SPR (Biacore T200), DVD-Ig captured by anti-human IgG Fc, antigen in solution. As for the experimental part: (§2) The binding of antibodies to purified recombinant IL-17 and TNFα proteins were determined by surface plasmon resonance-based measurements with a Biacore® T200 instrument (GE Healthcare) using running HBS-EP (10 mM HEPES [pH 7.4], 150 mM NaCl, 3 mM EDTA, and 0.005% surfactant P20) containing 0.1 mg/ml BSA at 25° C. All chemicals were obtained from Biacore® AB (GE Healthcare) or otherwise from a different source as described in the text. Approximately 5000 RU of goat anti-human IgG (Fcγ) fragment specific polyclonal antibody (Pierce Biotechnology Inc, Rockford, Ill.) diluted in 10 mM sodium acetate (pH 4.5) was directly immobilized across a CM5 research grade biosensor chip using a standard amine coupling kit according to manufacturer's instructions and procedures at 25 ug/ml. Unreacted moieties on the biosensor surface were blocked with ethanolamine. Modified carboxymethyl dextran surface in flowcell 2, 3 and 4 were used as a reaction surface. Modified carboxymethyl dextran with goat IgG in flow cell 1 was used as the reference surface. For kinetic analysis, rate equations derived from the 1:1 Langmuir binding model were fitted simultaneously to association and dissociation phases of all six injections (using global fit analysis with local float for Rmax) with the use of Biacore T200 Evaluation software v.1.0. Purified antibodies were diluted in HEPES-buffered saline for capture across goat anti-human IgG specific reaction surfaces. Antibodies to be captured as ligand (1-5 μg/ml) were injected over reaction matrices at a flow rate of 50 μl/minute. Association phase was monitored for 5 minutes, while dissociation phase was monitored for 10-60 minutes to accommodate for slower off-rates. The association and dissociation rate constants, ka (unit M-1 s-1) and kd (unit s-1) were determined under a continuous flow rate of 50 μl/minute. Rate constants were derived by making kinetic binding measurements at six different antigen concentrations ranging from 0.78 nM to 100 nM, depending on the species of IL-17 or TNFα tested. The association ka, dissociation rate kd and equilibrium dissociation constant KD were calculated with the use of the same Biacore T200 Evaluation software v.1.0.
For orientation: SPR reads the build-up and loss of mass on a sensor chip optically.

Experiment [4] addresses T3, Rhesus TNFa (rhesus, UniProt P48094 77-233).
T3 construct: also called Rhesus TNF-alpha
The description is as above. As to the method: as §2

The target in experiment [5] is T1, Human IL-17A. The experiment is described as above. As to the method:
as §2

The target of experiment [6] is T1, Human IL-17A. Briefly: ELISA, captured DVD-Ig, biotin-human IL-17 titrated. As for the experimental part: as §1, with “TNF/IL-17 DVD-Ig proteins” for “IL-17 antibodies”, “human TNF and” for “human”, “biotin-human TNF or” for “biotin-human”
(In general: ELISA stands for enzyme-linked immunosorbent assay.)

Consider seven molecules from patent US20140161804A1 (AbbVie / Abbott, published 2014).

T1 sequence (Q16552 20-155 limits assumed): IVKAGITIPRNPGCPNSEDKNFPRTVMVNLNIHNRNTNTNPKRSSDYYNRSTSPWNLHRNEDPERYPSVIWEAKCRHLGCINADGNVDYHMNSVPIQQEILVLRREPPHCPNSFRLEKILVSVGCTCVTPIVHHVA
T3 sequence (P48094 77-233 limits assumed): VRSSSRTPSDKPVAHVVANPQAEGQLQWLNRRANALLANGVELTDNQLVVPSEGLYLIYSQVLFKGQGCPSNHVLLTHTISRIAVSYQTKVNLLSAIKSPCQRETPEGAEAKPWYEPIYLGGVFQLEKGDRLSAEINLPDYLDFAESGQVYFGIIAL

B1: IL17-h10F7M-B20 hIgG1/K mut (antibody, V domains shown)
VH: EVQLVQSGAEVKKPGSSVKVSCKASGYTFTDYEIHWVRQAPGQGLEWMGVNDPESGGTFYNQKFDGRVTLTADESTSTAYMELSSLRSEDTAVYYCTRYDKWYSFEGMDIWGQGTTVTVSS
VL: DIQMTQSPSSLSASVGDRVTITCRASSGIISYIDWFQQKPGKAPKRLIYATFDLASGVPSRFSGSGSGTDYTLTISSLQPEDFATYYCRQVGSYPETFGQGTKLEIK
notes: Full length human IgG1/kappa, IgG1 mut(234,235); also called h10F7-B20; J439M1S2(H)3 #B20
As a reminder, the Kd is a measure of binding affinity in units of concentration. As a reminder, the koff is the first-order rate constant of dissociation. For orientation: kon means the rate constant with which the complex forms. As usually defined, the EC50 is the midpoint of the concentration-response curve. In experiment [1], B1 yielded a Kd of 0.00214 nM, a koff of 6.27e-06 s⁻¹ and a kon of 2.92e+06 M⁻¹ s⁻¹. For the same molecule, the EC50 in experiment [2] amounted to 0.07 nM.

B2: IL17-h10F7M-A6 hIgG1/K mut (antibody, V domains shown)
VH: EVQLVQSGAEVKKPGSSVKVSCKASGYTFTDYEIHWVRQAPGQGLEWIGVNDPDSGGTLYNQKFDGRVTLTADESTSTAYMELSSLRSEDTAVYYCTRYDKWYSFEGMDIWGQGTTVTVSS
VL: DIQMTQSPSSLSASVGDRVTITCSASQGIRSYIDWFQQKPGKSPKRLIYATFDLASGVPSRFSGSGSGTDYTLTISSLQPEDFATYYCRQVGNYPGTFGQGTKLEIK
notes: Full length human IgG1/kappa, IgG1 mut(234,235); also called h10F7-A6; J439M1S2(H)3 #A6
B2: in experiment [1], the Kd amounted to 0.0015 nM, the koff was 4.48e-06 s⁻¹ and the kon came out at 2.99e+06 M⁻¹ s⁻¹. In experiment [2], this molecule gave an EC50 of 0.08 nM.

B3: IL17-h10F7M-A11 hIgG1/K mut (antibody, V domains shown)
VH: EVQLVQSGAEVKKPGSSVKVSCKASGYTFTDYEIHWVRQAPGQGLEWIGVNDPESGGTFYNQKFDGRVTLSADESTSTAYMELSSLRSEDTAVYYCTRYDKYWSFEGMDYWGQGTTVTVSS
VL: DIQMTQSPSSLSASVGDRVTITCRASSGIISYIDWFQQKPGKAPKRLIYATFDLASGVPSRFSGSGSGTDYTLTISSLQPEDFATYYCRQVGSYPETFGQGTKLEIK
notes: Full length human IgG1/kappa, IgG1 mut(234,235); also called h10F7-A11; J439M1S2(H)3 #A11
In experiment [1], B3 displayed a Kd of 0.0021 nM, a koff of 7.68e-06 s⁻¹ and a kon of 3.64e+06 M⁻¹ s⁻¹. Besides, the response in experiment [2] was half-maximal at 0.04 nM (EC50).

B4: IL17-h10F7M-A16 hIgG1/K mut (antibody, V domains shown)
VH: EVQLVQSGAEVKKPGSSVKVSCKASGYTFSDYEIHWVRQAPGQGLEWMGVNDPESGGTFYNQKFDGRVTLTADESTSTAYMELSSLRSEDTAVYYCTRYDKWYSFEGMDIWGQGTTVTVSS
VL: DIQMTQSPSSLSASVGDRVTITCSASQGIRSYIDWFQQKPGKSPKRLIYATFDLASGVPSRFSGSGSGTDYTLTISSLQPEDFATYYCRQVGNYPGTFGQGTKLEIK
notes: Full length human IgG1/kappa, IgG1 mut(234,235); also called h10F7-A16; J439M1S2(H)3 #A16
In experiment [1], B4 showed a Kd of 0.00151 nM, an off-rate (koff) of 4.52e-06 s⁻¹ and a kon of 2.99e+06 M⁻¹ s⁻¹. Besides, a half-maximal effect in experiment [2] (EC50) was put at 0.07 nM.

B5: hMAK195-21-h10F7-M11.8 DVD-Ig (bispecific antibody, human IgG1, kappa, L234A L235A)
heavy: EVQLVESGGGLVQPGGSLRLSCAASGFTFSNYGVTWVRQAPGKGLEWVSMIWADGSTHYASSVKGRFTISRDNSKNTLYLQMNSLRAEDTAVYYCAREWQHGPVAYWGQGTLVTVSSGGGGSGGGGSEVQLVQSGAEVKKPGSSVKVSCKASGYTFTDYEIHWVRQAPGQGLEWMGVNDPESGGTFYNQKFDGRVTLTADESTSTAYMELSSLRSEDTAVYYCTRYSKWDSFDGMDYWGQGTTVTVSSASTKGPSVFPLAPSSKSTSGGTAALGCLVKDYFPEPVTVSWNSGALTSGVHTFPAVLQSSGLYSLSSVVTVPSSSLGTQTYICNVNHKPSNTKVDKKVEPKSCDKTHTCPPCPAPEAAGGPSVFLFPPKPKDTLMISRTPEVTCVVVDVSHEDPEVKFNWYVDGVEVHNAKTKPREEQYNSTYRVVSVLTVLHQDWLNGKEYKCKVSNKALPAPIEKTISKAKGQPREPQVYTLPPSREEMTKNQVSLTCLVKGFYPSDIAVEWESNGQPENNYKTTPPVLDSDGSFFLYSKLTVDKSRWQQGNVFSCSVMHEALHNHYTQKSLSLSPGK
light: DIQMTQSPSSLSASVGDRVTITCRASQLVSSAVAWYQQKPGKAPKLLIYWASARHTGVPSRFSGSGSGTDFTLTISSLQPEDFATYYCQQHYKTPFTFGQGTKLEIKRGGSGGGGSGDIQMTQSPSSLSASVGDRVTITCRASSGIISYIDWFQQKPGKAPKRLIYATFDLASGVPSRFSGSGSGTDYTLTISSLQPEDFATYYCRQVGSYPETFGQGTKLEIKRTVAAPSVFIFPPSDEQLKSGTASVVCLLNNFYPREAKVQWKVDNALQSGNSQESVTEQDSKDSTYSLSSTLTLSKADYEKHKVYACEVTHQGLSSPVTKSFNRGEC
notes: DVD-Ig, TNF outer / IL-17 inner domain; IgG1 234,235 mut, kappa; GS10 linkers; also called hMAK195-21-GS10-M11 DVD
For B5, the Kd is 0.0253 nM in experiment [3], 0.0254 nM in experiment [4] and 0.0434 nM in experiment [5]. In addition, the results for the koff in experiment [3], in experiment [4] and in experiment [5] were 6.28e-06 s⁻¹, 0.000132 s⁻¹ and 1.05e-05 s⁻¹, respectively. The kon stood at 248000 M⁻¹ s⁻¹ in experiment [3], 5.21e+06 M⁻¹ s⁻¹ in experiment [4] and 242000 M⁻¹ s⁻¹ in experiment [5]. Also, the EC50 in experiment [6] was found to be 0.095 nM.

B6: hMAK195-24-h10F7-M11.8 DVD-Ig (bispecific antibody, human IgG1, kappa, L234A L235A)
heavy: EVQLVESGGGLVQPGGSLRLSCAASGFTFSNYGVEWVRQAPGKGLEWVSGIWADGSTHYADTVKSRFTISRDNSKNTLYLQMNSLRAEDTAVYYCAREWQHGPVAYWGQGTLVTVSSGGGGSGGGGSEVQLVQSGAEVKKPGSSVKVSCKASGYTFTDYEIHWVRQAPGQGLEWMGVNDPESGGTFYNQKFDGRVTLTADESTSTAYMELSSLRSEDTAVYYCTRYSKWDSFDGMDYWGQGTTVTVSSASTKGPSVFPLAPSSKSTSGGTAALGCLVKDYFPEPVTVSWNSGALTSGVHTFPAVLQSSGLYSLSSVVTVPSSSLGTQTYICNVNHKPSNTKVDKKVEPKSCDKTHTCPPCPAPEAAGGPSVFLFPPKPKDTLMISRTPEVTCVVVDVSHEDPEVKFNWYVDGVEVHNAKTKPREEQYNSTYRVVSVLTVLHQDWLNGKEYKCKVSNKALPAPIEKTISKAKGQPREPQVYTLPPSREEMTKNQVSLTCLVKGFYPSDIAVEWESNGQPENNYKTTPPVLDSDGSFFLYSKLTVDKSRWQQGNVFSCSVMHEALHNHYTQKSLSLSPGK
light: DIQMTQSPSSLSASVGDRVTITCKASQLVSSAVAWYQQKPGKAPKLLIYWASTLHTGVPSRFSGSGSGTDFTLTISSLQPEDFATYYCQQHYRTPFTFGQGTKLEIKRGGSGGGGSGDIQMTQSPSSLSASVGDRVTITCRASSGIISYIDWFQQKPGKAPKRLIYATFDLASGVPSRFSGSGSGTDYTLTISSLQPEDFATYYCRQVGSYPETFGQGTKLEIKRTVAAPSVFIFPPSDEQLKSGTASVVCLLNNFYPREAKVQWKVDNALQSGNSQESVTEQDSKDSTYSLSSTLTLSKADYEKHKVYACEVTHQGLSSPVTKSFNRGEC
notes: DVD-Ig; IgG1 234,235 mut, kappa; GS10 linkers; also called hMAK195-24-GS10-M11 DVD
In experiment [3], B6 displayed a Kd of 0.0241 nM, a koff of 6.25e-06 s⁻¹ and a kon of 259000 M⁻¹ s⁻¹. In experiment [4], the Kd amounted to 0.0716 nM, the koff was 0.000343 s⁻¹ and the kon worked out at 4.78e+06 M⁻¹ s⁻¹. In experiment [5], this molecule had a Kd of 0.0427 nM, a koff of 1.07e-05 s⁻¹ and a kon of 251000 M⁻¹ s⁻¹. This molecule also returned an EC50 in experiment [6] of 0.084 nM.

B7: hMAK195-24-h10F7-M11.8 DVD-Ig wt (bispecific antibody, human IgG1, kappa)
heavy: not shown
light: DIQMTQSPSSLSASVGDRVTITCKASQLVSSAVAWYQQKPGKAPKLLIYWASTLHTGVPSRFSGSGSGTDFTLTISSLQPEDFATYYCQQHYRTPFTFGQGTKLEIKRGGSGGGGSGDIQMTQSPSSLSASVGDRVTITCRASSGIISYIDWFQQKPGKAPKRLIYATFDLASGVPSRFSGSGSGTDYTLTISSLQPEDFATYYCRQVGSYPETFGQGTKLEIKRTVAAPSVFIFPPSDEQLKSGTASVVCLLNNFYPREAKVQWKVDNALQSGNSQESVTEQDSKDSTYSLSSTLTLSKADYEKHKVYACEVTHQGLSSPVTKSFNRGEC
notes: DVD-Ig; wild-type IgG1, kappa; GS10 linkers; also called HMAK195-24-h10F7-M11.8 HC DVD wt
In experiment [3], B7 returned a Kd of 0.0201 nM, a koff of 4.29e-06 s⁻¹ and a kon of 214000 M⁻¹ s⁻¹. In experiment [4], this molecule returned a Kd of 0.0752 nM, a koff of 0.00046 s⁻¹ and a kon of 6.12e+06 M⁻¹ s⁻¹. In experiment [5], this molecule gave a Kd of 0.0363 nM, a koff of 8.48e-06 s⁻¹ and a kon of 233000 M⁻¹ s⁻¹. This molecule also returned an EC50 in experiment [6] of 0.12 nM.
